Test results: US5951979

Target: tyrosine phosphorylated ^32 P-labelled RCM-lysozyme (Gallus gallus (Chicken)) (UniProt P00698)

specific activity with tyrosine phosphorylated RCM-Lysozyme as substrate (fold lower than the wild type enzyme): 10000
Substance: full length PTP-PEST D199A (from UniProt Q05209) (enzyme)
